Key:
[1] = target: CheAΔ289 (290–671) (T. maritima) (UniProt Q56310); assay: pulsed dipolar ESR spectroscopy
[2] = target: CheA (Thermotoga maritima) (UniProt Q56310); settings: cited from earlier work
[3] = target: CheA:CheW complex (CheAΔ289 dimer with one CheW bound to each subunit) (T. maritima) (UniProt Q56310); assay: pulsed dipolar ESR spectroscopy

CheA (Thermotoga maritima), sequence (Q56310 whole entry): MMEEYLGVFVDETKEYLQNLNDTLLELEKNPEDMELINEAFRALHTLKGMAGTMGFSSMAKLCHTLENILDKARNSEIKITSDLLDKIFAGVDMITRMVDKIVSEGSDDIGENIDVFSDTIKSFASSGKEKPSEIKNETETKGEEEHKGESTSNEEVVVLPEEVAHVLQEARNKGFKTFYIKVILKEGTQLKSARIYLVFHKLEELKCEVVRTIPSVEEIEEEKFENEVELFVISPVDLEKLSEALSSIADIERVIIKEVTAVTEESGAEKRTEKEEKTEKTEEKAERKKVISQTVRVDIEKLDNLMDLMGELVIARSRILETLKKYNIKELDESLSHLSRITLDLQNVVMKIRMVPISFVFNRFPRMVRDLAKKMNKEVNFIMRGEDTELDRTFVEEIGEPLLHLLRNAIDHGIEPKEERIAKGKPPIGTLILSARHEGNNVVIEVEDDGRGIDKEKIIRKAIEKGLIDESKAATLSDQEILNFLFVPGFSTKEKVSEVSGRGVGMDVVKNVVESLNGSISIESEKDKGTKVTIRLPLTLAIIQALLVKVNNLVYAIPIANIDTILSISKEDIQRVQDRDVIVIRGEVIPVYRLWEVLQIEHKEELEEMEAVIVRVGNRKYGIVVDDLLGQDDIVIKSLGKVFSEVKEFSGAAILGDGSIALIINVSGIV
CheW, sequence (Q56311 whole entry): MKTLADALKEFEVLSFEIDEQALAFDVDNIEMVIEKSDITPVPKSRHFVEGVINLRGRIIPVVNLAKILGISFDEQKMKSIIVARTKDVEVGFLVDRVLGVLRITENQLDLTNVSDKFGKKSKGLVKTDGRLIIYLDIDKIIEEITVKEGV

Substance: CheAΔ289 (290–671) (from UniProt Q56310 290-671) (domain or fragment)
- stoichiometry N [1]: 4

Substance: CheW (from UniProt Q56311)
- Kd [2]: 100 nM

Substance: Tm14C (Tm14: residues 40–213) (domain or fragment)
- stoichiometry N (Tm14 dimer per CheA:CheW dimer) [3]: 1

Reference: publication PMC2873776
